As a reminder, the Kd is the free concentration of one partner at which half of the binding sites on the other are occupied at equilibrium, for simple one-to-one binding. High values mean weaker binding, low ones tighter binding.

The values that follow come from article PMC5703284 (Proceedings of the National Academy of Sciences of the …, 2017).

One test deals with human ActRIIA-Fc protein (human, UniProt P27037).
A further test deals with T1, human ActRIIB-Fc protein (human, UniProt Q13705).
T1 sequence: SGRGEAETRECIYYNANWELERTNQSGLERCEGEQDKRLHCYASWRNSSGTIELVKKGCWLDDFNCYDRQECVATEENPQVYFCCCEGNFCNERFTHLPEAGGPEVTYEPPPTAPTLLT

human ActRIIA-Fc protein, sequence (P27037 20-135): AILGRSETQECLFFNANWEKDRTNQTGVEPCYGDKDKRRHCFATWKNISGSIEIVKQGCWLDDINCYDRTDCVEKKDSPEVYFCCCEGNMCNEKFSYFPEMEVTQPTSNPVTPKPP

B1: activin A (ligand)
chain: GLECDGKVNICCKKQFFVSFKDIGWNDWIIAPSGYHANYCEGECPSHIAGTSGSSLSFHSTVINHYRMRGHSPFANLKSCCVPTKLRPMSMLYYDDGQNIIKKDIQNMIVEECGCS
As for B1, the Kd with human ActRIIA-Fc protein stood at 5.3 pM; with human ActRIIB-Fc protein it was 6.5 pM.
